According to doi:10.1101/2023.01.30.526221:

Columns and labels:
[1] = biological target: PfRIPR tail (Plasmodium falciparum) (UniProt O97302); test: SPR
[2] = biological target: PfRIPR (Plasmodium falciparum) (UniProt O97302); test: SPR
[3] = biological target: full-length human basigin (human); test: MST
[4] = biological target: basigin ectodomain (human); test: MST

Substance	Kd [1] [nM]	Kd [2] [nM]	Kd [3] [nM]	Kd [4] [nM]
PfCSS-PfPTRAMP complex	3000	3000	–	–
PfRH5 (natural protein)	–	–	120	190
